{
  "source": "patent US20090047240A1",
  "key": {"[1]": {"molecular_target": "TLR7 expressed in HEK293 cells (UniProt Q9NYK1)", "sequence (Q9NYK1 27-1049 limits assumed)": "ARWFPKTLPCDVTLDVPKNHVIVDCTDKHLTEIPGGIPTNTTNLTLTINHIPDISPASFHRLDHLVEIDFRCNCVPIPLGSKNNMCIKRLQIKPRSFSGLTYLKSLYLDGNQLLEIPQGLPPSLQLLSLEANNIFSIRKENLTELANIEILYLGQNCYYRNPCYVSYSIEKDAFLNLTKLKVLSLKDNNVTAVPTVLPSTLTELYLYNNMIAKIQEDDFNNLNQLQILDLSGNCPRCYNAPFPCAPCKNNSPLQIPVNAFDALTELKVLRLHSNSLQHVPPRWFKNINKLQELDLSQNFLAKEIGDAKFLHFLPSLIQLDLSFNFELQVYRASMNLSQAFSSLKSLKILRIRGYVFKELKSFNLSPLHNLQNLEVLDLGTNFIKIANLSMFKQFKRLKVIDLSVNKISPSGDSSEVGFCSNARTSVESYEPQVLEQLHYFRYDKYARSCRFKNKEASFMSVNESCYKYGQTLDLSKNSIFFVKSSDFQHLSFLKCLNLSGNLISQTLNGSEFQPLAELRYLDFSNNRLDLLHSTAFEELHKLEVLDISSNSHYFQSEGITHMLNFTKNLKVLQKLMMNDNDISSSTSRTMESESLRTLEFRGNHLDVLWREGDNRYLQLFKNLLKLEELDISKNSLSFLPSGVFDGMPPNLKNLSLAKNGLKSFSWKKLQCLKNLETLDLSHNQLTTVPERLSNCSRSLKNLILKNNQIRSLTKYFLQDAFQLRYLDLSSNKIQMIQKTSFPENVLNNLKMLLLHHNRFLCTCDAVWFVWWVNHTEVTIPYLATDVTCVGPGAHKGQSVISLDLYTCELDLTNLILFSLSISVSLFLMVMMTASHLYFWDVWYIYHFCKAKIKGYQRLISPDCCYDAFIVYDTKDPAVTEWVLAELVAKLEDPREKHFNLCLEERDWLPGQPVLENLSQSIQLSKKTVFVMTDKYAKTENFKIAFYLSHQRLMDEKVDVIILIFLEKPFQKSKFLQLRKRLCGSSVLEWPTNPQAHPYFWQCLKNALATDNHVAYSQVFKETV", "experiment": "cell-based or functional assay"}, "[2]": {"molecular_target": "TLR9 expressed in HEK293 cells (UniProt Q9NR96)", "sequence (Q9NR96 26-1032 limits assumed)": "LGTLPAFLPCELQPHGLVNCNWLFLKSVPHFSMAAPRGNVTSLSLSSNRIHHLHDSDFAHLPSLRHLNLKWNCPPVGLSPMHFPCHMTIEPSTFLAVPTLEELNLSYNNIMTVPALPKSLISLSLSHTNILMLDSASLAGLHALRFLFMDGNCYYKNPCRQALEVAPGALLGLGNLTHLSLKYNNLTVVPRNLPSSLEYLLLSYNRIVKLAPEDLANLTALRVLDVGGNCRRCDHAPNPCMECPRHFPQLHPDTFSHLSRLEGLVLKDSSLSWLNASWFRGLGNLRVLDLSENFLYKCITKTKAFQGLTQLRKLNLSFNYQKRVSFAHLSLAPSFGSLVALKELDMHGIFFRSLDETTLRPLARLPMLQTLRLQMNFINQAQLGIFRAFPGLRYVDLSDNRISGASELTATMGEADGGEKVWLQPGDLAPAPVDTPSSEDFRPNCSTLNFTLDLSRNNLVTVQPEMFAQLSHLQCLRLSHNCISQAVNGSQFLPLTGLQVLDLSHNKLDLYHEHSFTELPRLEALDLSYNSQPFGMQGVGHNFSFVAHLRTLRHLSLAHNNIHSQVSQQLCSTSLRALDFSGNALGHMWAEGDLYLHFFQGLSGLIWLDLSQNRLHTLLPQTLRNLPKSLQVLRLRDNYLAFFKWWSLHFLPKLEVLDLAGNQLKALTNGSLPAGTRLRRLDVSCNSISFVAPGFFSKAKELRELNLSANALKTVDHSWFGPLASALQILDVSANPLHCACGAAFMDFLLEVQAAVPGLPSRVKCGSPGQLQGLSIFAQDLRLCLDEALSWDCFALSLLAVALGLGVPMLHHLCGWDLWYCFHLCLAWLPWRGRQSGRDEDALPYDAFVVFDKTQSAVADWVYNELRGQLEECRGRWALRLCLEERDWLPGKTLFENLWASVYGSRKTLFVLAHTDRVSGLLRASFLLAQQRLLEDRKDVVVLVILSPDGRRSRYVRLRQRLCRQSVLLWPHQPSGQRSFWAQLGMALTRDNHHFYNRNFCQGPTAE", "experiment": "cell-based or functional assay"}},
  "data": [
    {"substance": "recombinant human Cpn10 with an N-terminal Alanine residue (from UniProt P61604 2-102)", "values": [
      {"measurement": "NF-κB activation (luciferase reporter) in HEK293 cells expressing TLR7 and TLR4, stimulated with R848 (fold reduction)", "setting": "[1]", "result": 2},
      {"measurement": "NF-κB activation (luciferase reporter) in HEK293 cells expressing TLR9, stimulated with CpG DNA (fold reduction)", "setting": "[2]", "result": "5 to 10"}
    ]}
  ]
}
